Values of other authors, collected in paper PMC4303274.
Like-named read-outs stand apart in the source and are kept apart here.

Columns and labels:
[1] = target: neurogranin (Homo sapiens) (UniProt Q92686)
CaMKII (Homo sapiens) [2] = target: CaMKII (Homo sapiens) (UniProt Q9UQM7)
CaMKII (Homo sapiens) [3] = target: CaMKII (Homo sapiens) (UniProt Q9UQM7); remark: listed apart in the source

Sequence of CaMKII (Homo sapiens) (Q9UQM7 whole entry): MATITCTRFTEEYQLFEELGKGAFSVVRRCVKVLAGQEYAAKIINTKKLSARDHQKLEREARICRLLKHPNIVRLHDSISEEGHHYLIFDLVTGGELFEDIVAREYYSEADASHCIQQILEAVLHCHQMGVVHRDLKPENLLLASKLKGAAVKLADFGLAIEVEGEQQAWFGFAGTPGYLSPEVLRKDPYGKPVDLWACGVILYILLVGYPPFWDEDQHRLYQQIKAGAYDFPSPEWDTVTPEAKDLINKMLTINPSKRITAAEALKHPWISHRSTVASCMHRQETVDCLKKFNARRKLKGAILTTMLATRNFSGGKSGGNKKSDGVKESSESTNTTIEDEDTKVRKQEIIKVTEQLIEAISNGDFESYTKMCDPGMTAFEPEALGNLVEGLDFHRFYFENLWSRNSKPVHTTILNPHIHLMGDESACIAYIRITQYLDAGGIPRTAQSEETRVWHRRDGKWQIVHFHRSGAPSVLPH
Sequence of neurogranin (Homo sapiens) (Q92686 whole entry): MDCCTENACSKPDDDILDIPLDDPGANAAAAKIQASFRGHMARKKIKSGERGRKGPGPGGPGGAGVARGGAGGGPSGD

Row | Substance | Kd [1] | Kd (CaMKII (Homo sapiens) [2]) | Kd (CaMKII (Homo sapiens) [3])
1 | calmodulin C-lobe fragment TR2C (R state) TR2C (from UniProt P0DP23) | 1050 nM | 950 nM | 
2 | calmodulin C-lobe fragment TR2C (T state) TR2C (from UniProt P0DP23) |  |  | 88000 nM
